Laboratory results taken from publication PMC11751877.
Values belong to the molecule of their own block, whether it stands above or below them.

Legend:
[1] = biological target: ALK4-Fc (Fc-fused ALK4 ligand-binding domain); experiment: SPR; Biacore 3000, 25°C; about 500 RU of ALK4-Fc captured on anti-human IgG (Fc) CM5 chip, Fc-free Cripto-1 injected at varying concentrations; HBS/EPS with 0.5 M NaCl and 0.1% BSA, pH 7.4; KD = kd/ka
[2] = biological target: Cripto-1 E-Fc (EGF-like domain fused to human IgG1 Fc) (human); experiment: SPR; Biacore 3000, 25°C; about 500 RU of Cripto-1-Fc construct captured on anti-human IgG (Fc) CM5 chip, Nodal injected at several concentrations; HBS/EPS (0.01 M Hepes, 0.5 M NaCl, 3 mM EDTA, 0.005% Tween 20, pH 7.4) with 0.1% BSA; 50 μL/min; fitted to a 1:1 or bivalent analyte model, KD = kd/ka; apparent
[3] = biological target: Cripto-1 EC-Fc (EGF-like and CFC domains fused to human IgG1 Fc) (human); experiment: as above
[4] = biological target: Cripto-1 NE-Fc (N-terminal and EGF-like domains fused to human IgG1 Fc) (human); experiment: as above
[5] = biological target: full-length Cripto-1-Fc (NEC-Fc), soluble full-length variant lacking the GPI anchor, fused to human IgG1 Fc (human); experiment: as above
Chain of full-length Cripto-1-Fc (NEC-Fc), soluble full-length variant lacking the GPI anchor, fused to human IgG1 Fc (human) (P13385 31-163, change not shown): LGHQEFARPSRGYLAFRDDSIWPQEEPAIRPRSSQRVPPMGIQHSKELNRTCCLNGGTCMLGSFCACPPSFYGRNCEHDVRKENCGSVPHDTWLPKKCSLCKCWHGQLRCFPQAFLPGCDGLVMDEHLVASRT

Kd [1]: 79.9 nM | koff [1]: 0.00179 s⁻¹ | kon [1]: 22400 M⁻¹ s⁻¹
Molecule: Fc-free Cripto-1 (soluble Cripto-1 from which the Fc fragment had been proteolytically removed) (domain or fragment)

Kd [2]: 27.8 nM | koff [2]: 0.00541 s⁻¹ | kon [2]: 195000 M⁻¹ s⁻¹ | Kd [3]: 14.3 nM | koff [3]: 0.000404 s⁻¹ | kon [3]: 28200 M⁻¹ s⁻¹ | Kd [4]: 10.4 nM | koff [4]: 0.00104 s⁻¹ | kon [4]: 34100 M⁻¹ s⁻¹ | Kd [5]: 10.1 nM | koff [5]: 0.0116 s⁻¹ | kon [5]: 1.14e+06 M⁻¹ s⁻¹
B1: Nodal (ligand)
chain: HHLPDRSQLCRKVKFQVDFNLIGWGSWIIYPKQYNAYRCEGECPNPVGEEFHPTNHAYIQSLLKRYQPHRVPSTCCAPVKTKPLSMLYVDNGRVLLDHHKDMIVEECGCL
